Results from US20240392020A1 (JIANGSU HENGRUI PHARMACEUTICALS, published 2024).
Positions count from the first letter of the chain named.

B1: F0 (antibody, human IgG1, lambda)
heavy: not shown
light: DTVVTQEPSFSVSPGGTVTLTCGLSSGSVSTSHYPSWYQQTPGQAPRMLIYNTNTRSSGVPDRFSGSILGNKAALTITGAQADDESDYYCAIHVDRDIWVFGGGTKLTVLGQPKAAPSVTLFPPSSEELQANKATLVCLISDFYPGAVTVAWKADSSPVKAGVETTTPSKQSNNKYAASSYLSLTPEQWKSHRSYSCQVTHEGSTVEKTVAPTECS
B2: N6 (antibody)
heavy: not shown
light: EIVLTQSPGTLSLSPGERATLSCRASQNINNRFLAWYQQRPGQAPRLLIYAASSRATGVPDRFSGSGSGTDFTLTISRLEAEDFAMYHCQQYGSFPRTFGQGTMVDIKSGCPRFLTRPKAFVVSVGKDATLSSQIVGNPTPQVSWEKDQQPVAAGARFRLAQDGDLYRLTILDLALGDSGQYVSRARNAIGEAFAAVGLQVDAEA
B3: I2 (antibody)
heavy: not shown
light: DIQMTQSPSSLSASVGDRVTITCRASQSISNNLNWYQQKPGKAPKLLIYYTSRFHSGVPSRFSGSGSGTDFTFTISSLQPEDIATYYCQQEHTLPYTFGQGTKLEIKSGAPRFLTRPKSYTVSVGKDASLSSQIVGNPTPQVSWEKDQQPVAAGARFRLAQDGDLYRLKILDLALGDSGQYVSRARNAIGEAFACVGLQVDAEA
B4: I3 (antibody)
heavy: not shown
light: B3 light with K118L, S119A, Y120F, T121V, S129T, Q148K, A152T, A174Q, G176S, V196L
B5: I6 (antibody)
heavy: not shown
light: DIQMTQSPSSLSASVGDRVTITCRASQSISNNLNWYQQKPGKAPKLLIYYTSRFHSGVPSRFSGSGSGTDFTFTISSLQPEDIATYYCQQEHTLPYTFGQGTKLEIKSGAPRFLTRPLAFVVSVGKDATLSSQIVGNPTPQVSWEKDQLPVTAGARFRLAQDGDLYRLKILDLTLSDSGQYVSRARNAIGEAFACVGLEVGAEA
B6: I4 (antibody)
heavy: not shown
light: B5 light
B7: I5 (antibody)
heavy: not shown
light: B5 light
B8: I7 (antibody)
heavy: not shown
light: B5 light with A119S, F120Y, T129S, T174Q
B9: HJ-8 (bispecific antibody, human IgG1, kappa, L234A L235A)
heavy 1: not shown
light 1: DIQMTQSPSSVSASVGDRVTITCRASQDIANYLSWYQQKPGKSPKLLIYGTSNLEVGVPSRFSGSRSGTDFTLTISSLQPEDFATYYCLQDKEFPRTFGGGTKVEIKRTVASSGAPRFLTRPKASVVSVGKDATLSSQIVGNPFPQVSWEKDKQPVTAGVRFRLAQDGDLYRLKILDLQLSDSGQYVSRARNAHGEAFACLGLQVDAEA
heavy 2: EVQLVQSGAEVKKPGSSVKVSCKASGYTFSNYLIEWVRQAPGQGLEWIGVIDPGVGDTNYNENFKGRATLTADKSTSTAYIELSSLRSEDTAVYYCAREDNTGTAFDYWGQGTTVTVSSASTKGPSVFPLAPSSKSTSGGTAALGCLVKDYFPEPVTVSWNSGALTSGVHTFPAVLQSSGLYSLSSVVTVPSSSLGTQTYICNVNHKPSNTKVDKKVEPKSCDKTHTCPPCPAPEAAGGPSVFLFPPKPKDTLMISRTPEVTCVVVDVSHEDPEVKFNWYVDGVEVHNAKTKPREEQYNSTYRVVSVLTVLHQDWLNGKEYKCKVSNKALPAPIEKTISKAKGQPREPQVCTLPPSREEMTKNQVSLSCAVKGFYPSDIAVEWESNGQPENNYKTTPPVLDSDGSFFLVSKLTVDKSRWQQGNVFSCSVMHEALHNHYTQKSLSLSPGK
light 2: SIVMTQTPLSLSVTPGQPASISCKASQSVSSDVTWYLQKPGQSPQLLIYYVSEHYTGVPDRFSGSGYGTDFTLKISRVEAEDVGVYYCQQHHRFPLTFGQGTKLEIKRTVAAPSVFIFPPSDEQLKSGTASVVCLLNNFYPREAKVQWKVDNALQSGNSQESVTEQDSKDSTYSLSSTLTLSKADYEKHKVYACEVTHQGLSSPVTKSFNRGEC
B10: HJ-5 (bispecific antibody, human IgG1, kappa, L234A L235A)
heavy 1: not shown
light 1: B9 light 1 with R108G, T109G, V110G, A111G
heavy 2: B9 heavy 2
light 2: B9 light 2
B11: HJ-6 (bispecific antibody, human IgG1, kappa, L234A L235A)
heavy 1: not shown
light 1: B9 light 1 with R108G, T109G, V110G, A111G, R121C
heavy 2: B9 heavy 2
light 2: B9 light 2
B12: HJ-7 (bispecific antibody, human IgG1, kappa, L234A L235A)
heavy 1: not shown
light 1: B9 light 1 with R108G, T109G, V110G, A111G, S137C, S188C
heavy 2: B9 heavy 2
light 2: B9 light 2
B13: HJ-9 (bispecific antibody, human IgG1, kappa, L234A L235A)
heavy 1: not shown
light 1: B9 light 1 with R121C
heavy 2: B9 heavy 2
light 2: B9 light 2
B14: HJ-10 (bispecific antibody, human IgG1, kappa, L234A L235A)
heavy 1: not shown
light 1: B9 light 1 with S137C, S188C
heavy 2: B9 heavy 2
light 2: B9 light 2
B15: HJ-11 (bispecific antibody, human IgG1, kappa, L234A L235A)
heavy 1: not shown
light 1: B9 light 1 with A115C, S137C, S188C
heavy 2: B9 heavy 2
light 2: B9 light 2
B16: h1831K (antibody, human IgG1, kappa, V domains shown)
VH: QVQLVQSGAEVKKPGASVKVSCKASGYTFTSYWMHWVRQAPGQGLEWMGRITPSSGFAMYNEKFKNRVTMTRDTSTSTVYMELSSLRSEDTAVYYCARGGSSYDYFDYWGQGTTVTVSS
VL: DIVLTQSPASLAVSPGQRATITCRASESVSIHGTHLMHWYQQKPGQPPKLLIYAASKLESGVPARFSGSGSGTDFTLTINPVEAEDTANYYCQQSFEDPLTFGQGTKLEIKR
notes: also called P-IgG1; PDL1 monoclonal antibody
B17: h1708-04 (antibody, human IgG1, kappa, V domains shown)
VH: EVQLVQSGAEVKKPGASVKVSCKASGYTFTNYWMHWVRQAPGQGLEWMGRIDPDSTGSKYNEKFKTRVTMTRDTSTSTVYMELSSLRSEDTAVYYCAREGAYGYYFDYWGQGTLVTVSS
VL: DIQMTQSPSSLSASVGDRVTITCRASENIYSYLAWYQQKPGKSPKLLIYNARTLAEGVPSRFSGSGSGTDFTLTISSLQPEDFATYYCQYHSGSPLPFGGGTKVEIKR
notes: also called T-IgG1; TIGIT monoclonal antibody
B18: N7 (antibody)
heavy: not shown
light: EIVLTQSPGTLSLSPGERATLSCRASQNINNRFLAWYQQRPGQAPRLLIYAASSRATGVPDRFSGSGSGTDFTLTISRLEAEDFAMYHCQQYGSFPRTFGQGTMVDIKQGSPPEFLRFPRPVRVVSGAEAELKCVVLGEPPPVVVWEKGGQQLAASERLSFPADGAEHGLLLTAALPTDAGCYVCRARNAAGEAYAAAAVTVLEPP
B19: N8 (antibody)
heavy: not shown
light: B18 light with C134S, C185S

Columns and labels:
[1] = target: T1, B7H3 on the recombinant cell line CT26-B7H3 (UniProt Q5ZPR3 29-534, limits assumed); test: FACS, CT26-B7H3 cells
T1 construct: whole, on cells
T1 sequence (looked up): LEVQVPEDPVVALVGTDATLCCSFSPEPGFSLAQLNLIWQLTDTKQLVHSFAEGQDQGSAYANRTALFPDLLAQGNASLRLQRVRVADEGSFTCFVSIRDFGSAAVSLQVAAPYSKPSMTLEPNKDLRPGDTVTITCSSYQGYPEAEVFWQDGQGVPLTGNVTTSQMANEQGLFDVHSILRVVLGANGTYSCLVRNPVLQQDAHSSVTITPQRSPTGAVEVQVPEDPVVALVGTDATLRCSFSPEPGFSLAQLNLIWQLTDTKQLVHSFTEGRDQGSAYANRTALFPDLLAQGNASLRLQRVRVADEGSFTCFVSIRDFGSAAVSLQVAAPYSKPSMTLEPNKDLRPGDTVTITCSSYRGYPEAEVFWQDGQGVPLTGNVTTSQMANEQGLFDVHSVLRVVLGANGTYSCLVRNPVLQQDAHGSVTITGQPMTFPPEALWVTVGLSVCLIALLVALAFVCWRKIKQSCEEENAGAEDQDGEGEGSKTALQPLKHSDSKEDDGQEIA

[2] = target: T2, hB7H3 antigen protein (human, UniProt Q5ZPR3 29-461); test: SPR Biacore T200, antibody captured on Protein A chip
T2 construct: prepared in the laboratory
T2 sequence: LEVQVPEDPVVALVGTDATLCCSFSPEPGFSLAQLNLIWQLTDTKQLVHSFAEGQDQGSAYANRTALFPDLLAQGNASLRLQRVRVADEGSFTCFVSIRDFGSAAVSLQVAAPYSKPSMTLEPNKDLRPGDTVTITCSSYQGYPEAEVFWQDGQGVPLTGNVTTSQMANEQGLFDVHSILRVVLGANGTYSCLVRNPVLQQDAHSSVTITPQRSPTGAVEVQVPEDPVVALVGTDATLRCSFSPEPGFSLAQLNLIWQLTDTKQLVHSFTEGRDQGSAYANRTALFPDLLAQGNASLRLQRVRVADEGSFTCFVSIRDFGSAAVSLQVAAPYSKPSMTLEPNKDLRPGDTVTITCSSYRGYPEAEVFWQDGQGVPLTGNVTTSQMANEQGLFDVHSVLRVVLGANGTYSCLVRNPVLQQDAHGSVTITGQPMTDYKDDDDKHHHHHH
Experimental: The affinity of a test antibody for an antigen protein was determined by using a Biacore T200 (GE) instrument. […] The data obtained from the experiment was fitted with BIAevaluation version 4.1, GE software using a (1:1) Langmuir model to obtain affinity values.

[3] = target: T3, CEA on MKN45 cells (UniProt P06731 35-685); test: FACS, MKN45 cells
T3 construct: whole, on cells
T3 sequence (looked up): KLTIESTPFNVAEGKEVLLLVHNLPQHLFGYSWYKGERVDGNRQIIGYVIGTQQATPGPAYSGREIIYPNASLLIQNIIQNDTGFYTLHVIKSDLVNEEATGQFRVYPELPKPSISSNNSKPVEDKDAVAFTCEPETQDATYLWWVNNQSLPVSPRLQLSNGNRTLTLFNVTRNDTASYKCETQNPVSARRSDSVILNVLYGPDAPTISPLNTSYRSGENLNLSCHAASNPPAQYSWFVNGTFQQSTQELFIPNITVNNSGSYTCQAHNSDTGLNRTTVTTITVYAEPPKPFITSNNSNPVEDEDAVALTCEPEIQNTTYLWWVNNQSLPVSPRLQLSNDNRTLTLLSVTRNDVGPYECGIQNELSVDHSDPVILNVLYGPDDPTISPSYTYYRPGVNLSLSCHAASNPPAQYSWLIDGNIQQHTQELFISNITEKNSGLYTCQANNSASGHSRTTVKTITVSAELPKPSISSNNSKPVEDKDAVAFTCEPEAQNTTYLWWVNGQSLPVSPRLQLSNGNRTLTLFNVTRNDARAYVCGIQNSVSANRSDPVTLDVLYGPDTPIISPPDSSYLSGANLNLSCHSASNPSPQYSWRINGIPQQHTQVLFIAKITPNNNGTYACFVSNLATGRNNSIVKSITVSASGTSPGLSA

[4] = target: T4, hNGF (human, UniProt P01138 122-241, limits assumed); test: ELISA
T4 construct: bought
T4 sequence (P01138 122-241 limits assumed): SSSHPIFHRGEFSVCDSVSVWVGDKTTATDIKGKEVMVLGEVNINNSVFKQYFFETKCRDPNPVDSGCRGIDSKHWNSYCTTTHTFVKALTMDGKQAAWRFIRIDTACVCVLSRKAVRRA
Experimental: For an antibody targeting a soluble protein, the binding activity of the antibody against the soluble protein was detected by ELISA. […] After the blocking was completed, the blocking solution was discarded; and the plate was washed 3 times with a PBST buffer (pH 7.4, PBS containing 0.1% tween-20). 100 μL of the antibody solution diluted in a gradient was added to each well, and the mixture was incubated at 37° C. for 1 h. After the incubation was completed, the plate was washed 3 times with PBST. […] The plate was washed 3 times with PBST. […] The reaction was stopped by adding 50 μL of 1 M H₂SO₄ to each well. The absorbance values at 450 nm were read on a microplate reader, the binding curves of the antibodies to an antigen were fitted with software, and the EC₅₀ values were calculated.

[5] = target: T5, hIL-5 (human, UniProt P05113 20-134); test: ELISA
T5 construct: bought
Experimental: (§1) For an antibody targeting a soluble protein, the binding activity of the antibody against the soluble protein was detected by ELISA. […] After the blocking was completed, the blocking solution was discarded; and the plate was washed 3 times with a PBST buffer (pH 7.4, PBS containing 0.1% tween-20). 100 μL of the antibody solution diluted in a gradient was added to each well, and the mixture was incubated at 37° C. for 1 h. After the incubation was completed, the plate was washed 3 times with PBST.

[6] = target: T6, hTSLP (human, UniProt Q969D9 29-159); test: ELISA
T6 construct: bought
Experimental: as §1

[7] = target: T7, human PDL1-his (human, UniProt Q9NZQ7 19-239); test: SPR Biacore T200, antibody captured on Protein A chip
T7 construct: bought; also called hPDL1
T7 sequence (Q9NZQ7 19-239 limits assumed): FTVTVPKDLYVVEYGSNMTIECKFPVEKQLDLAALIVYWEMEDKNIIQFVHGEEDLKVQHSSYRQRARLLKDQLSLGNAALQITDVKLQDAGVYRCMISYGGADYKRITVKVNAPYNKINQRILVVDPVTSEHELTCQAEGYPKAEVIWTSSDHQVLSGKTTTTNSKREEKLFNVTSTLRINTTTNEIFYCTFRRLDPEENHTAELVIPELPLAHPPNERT
Experimental: (§2) After dissociation was completed for each cycle, the biosensor chip was washed with 10 mM Gly-HCl at pH 1.5 for regeneration. Data were fitted using a 1:1 model.

[8] = target: T8, human TIGIT-his (human, UniProt Q495A1 22-141, limits assumed); test: as above
T8 construct: bought; also called hTIGIT
T8 sequence (looked up): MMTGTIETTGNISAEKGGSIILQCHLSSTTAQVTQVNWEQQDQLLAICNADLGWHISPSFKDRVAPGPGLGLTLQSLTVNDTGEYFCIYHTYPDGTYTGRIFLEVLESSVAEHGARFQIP
Experimental: as §2

Binder	EC50 [4] [nM]	EC50 [5] [nM]	EC50 [6] [nM]	further results
B1	–	–	–	EC50 [1]: 1.29 nM; Kd [2]: 13.1 nM; koff [2]: 0.00206 s⁻¹; kon [2]: 157000 M⁻¹ s⁻¹
B2	–	–	–	EC50 [3]: 8.4 nM
B3	3.19	–	–	–
B4	2.99	–	–	–
B5	4.12	–	–	–
B6	4.13	–	–	–
B7	3.59	–	–	–
B8	3.15	–	–	–
B9	–	18.7	3.33	–
B10	–	16	2.64	–
B11	–	37	2.88	–
B12	–	17.7	2.18	–
B13	–	10.9	3.18	–
B14	–	20.8	3.17	–
B15	–	9.46	3	–
B16	–	–	–	Kd [7]: 0.0417 nM; koff [7]: 8.67e-05 s⁻¹; kon [7]: 2.08e+06 M⁻¹ s⁻¹
B17	–	–	–	Kd [8]: 0.0651 nM; koff [8]: 0.000139 s⁻¹; kon [8]: 2.14e+06 M⁻¹ s⁻¹
B18	–	–	–	EC50 [3]: 2.8 nM
B19	–	–	–	EC50 [3]: 2.6 nM
